# Results reported in patent US6468740.
# surface (amide) = not defined here
# Molecular target: monoclonal antibody D32.39
# Assay: solution competition of free peptide against radiolabeled dynorphin B peptide for D32.39
row,IC50 [nM],Binder
1,11,"Ac-RQFKVVT-OH [Ac-RQFKVVT-OH, free peptide]"
2,7.3,"Ac-RQFKVVT-NH2 [Ac-RQFKVVT-NH2, free peptide]"
3,3200,"Ac-QFKVVT-OH [Ac-QFKVVT-OH, free peptide]"
4,3.9,"Ac-RRQFKVVT-OH [Ac-RRQFKVVT-OH, free peptide]"
5,77000,"Ac-FKVVT-OH [Ac-FKVVT-OH, free peptide]"

# Molecular target: monoclonal antibody D32.39
# Assay: not given
row,Normalized Intensity (%),Binder
1,10,"Ac-FKVV-{surface (amide)} (reading uncertain) [FKVV, surface-immobilized peptide]"
2,14,"Ac-FLRRQFKV-{surface (amide)} (reading uncertain; also: C-terminus amide-linked to surface) [FLRRQFKV, surface-immobilized peptide]"
3,37,Ac-FLRRQFKVV-{surface (amide)} (reading uncertain; also: C-terminus amide-linked to surface)
4,17,"Ac-QFKVV-{surface (amide)} (reading uncertain; also: C-terminus amide-linked to surface) [QFKVV, surface-immobilized peptide]"
5,44,"Ac-LRRQFKVV-{surface (amide)} (reading uncertain; also: C-terminus amide-linked to surface) [LRRQFKVV, surface-immobilized peptide]"
6,12,"Ac-RRQFK-{surface (amide)} (reading uncertain; also: C-terminus amide-linked to surface) [RRQFK, surface-immobilized peptide]"
7,11,"Ac-RRQF-{surface (amide)} (reading uncertain; also: C-terminus amide-linked to surface) [RRQF, surface-immobilized peptide]"
8,98,Ac-FLRRQFKVVT-{surface (amide)} (reading uncertain; also: C-terminus amide-linked to surface)
9,16,"Ac-LRRQFKV-{surface (amide)} (reading uncertain; also: C-terminus amide-linked to surface) [LRRQFKV, surface-immobilized peptide]"
10,28,"Ac-QFKVVT-{surface (amide)} (reading uncertain; also: C-terminus amide-linked to surface) [QFKVVT, surface-immobilized peptide]"
11,54,"Ac-RQFKVV-{surface (amide)} (reading uncertain; also: C-terminus amide-linked to surface) [RQFKVV, surface-immobilized peptide]"
12,10,"Ac-LRRQF-{surface (amide)} (reading uncertain; also: C-terminus amide-linked to surface) [LRRQF, surface-immobilized peptide]"
13,6,"Ac-FLRR-{surface (amide)} (reading uncertain) [FLRR, surface-immobilized peptide]"
14,99,"Ac-RQFKVVT-{surface (amide)} (reading uncertain; also: C-terminus amide-linked to surface) [RQFKVVT, surface-immobilized peptide]"
15,99,"Ac-RRQFKVVT-{surface (amide)} (reading uncertain; also: C-terminus amide-linked to surface) [RRQFKVVT, surface-immobilized peptide]"
16,11,"Ac-QFKV-{surface (amide)} (reading uncertain; also: C-terminus amide-linked to surface) [QFKV, surface-immobilized peptide]"
17,10,"Ac-FLRRQFK-{surface (amide)} (reading uncertain; also: C-terminus amide-linked to surface) [FLRRQFK, surface-immobilized peptide]"
18,11,"Ac-KVVT-{surface (amide)} (reading uncertain; also: C-terminus amide-linked to surface) [KVVT, surface-immobilized peptide]"
19,8,"Ac-FLRRQF-{surface (amide)} (reading uncertain; also: C-terminus amide-linked to surface) [FLRRQF, surface-immobilized peptide]"
20,58,"Ac-RRQFKVV-{surface (amide)} (reading uncertain; also: C-terminus amide-linked to surface) [RRQFKVV, surface-immobilized peptide]"
21,16,"Ac-RQFKV-{surface (amide)} (reading uncertain; also: C-terminus amide-linked to surface) [RQFKV, surface-immobilized peptide]"
22,16,"Ac-RRQFKV-{surface (amide)} (reading uncertain; also: C-terminus amide-linked to surface) [RRQFKV, surface-immobilized peptide]"
23,8,"Ac-FLRRQ-{surface (amide)} (reading uncertain) [FLRRQ, surface-immobilized peptide]"
24,12,"Ac-LRRQFK-{surface (amide)} (reading uncertain; also: C-terminus amide-linked to surface) [LRRQFK, surface-immobilized peptide]"
25,13,"Ac-RQFK-{surface (amide)} (reading uncertain; also: C-terminus amide-linked to surface) [RQFK, surface-immobilized peptide]"
26,13,"Ac-FKVVT-{surface (amide)} (reading uncertain) [FKVVT, surface-immobilized peptide]"
27,10,"Ac-LRRQ-{surface (amide)} (reading uncertain; also: C-terminus amide-linked to surface) [LRRQ, surface-immobilized peptide]"
28,87,Ac-LRRQFKVVT-{surface (amide)} (reading uncertain; also: C-terminus amide-linked to surface)

# Molecular target: monoclonal antibody D32.39
# Assay: not given
# Remark: another data set of the same source
row,relative signal [%],Binder
1,100,Ac-FLRRQFKVVT-{surface (amide)} (reading uncertain; also: C-terminus amide-linked to surface)
